Patent publication US20090010925 (published 2009)
Changes are numbered by the printed parent chain. One block for each binder: values may come before it.

Molecular target: T1, VEGF(8-109) (human, UniProt P15692)
T1 chain: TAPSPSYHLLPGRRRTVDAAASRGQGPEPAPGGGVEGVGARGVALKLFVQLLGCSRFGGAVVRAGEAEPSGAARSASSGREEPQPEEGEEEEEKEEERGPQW
Experiment: SPR, 25C

B2: Y0239-19 (antibody, V domains shown)
VH: EVQLVESGGGLVQPGGSLRLSCAASGYTFTNYGMNWVRQAPGKGLEWVGWINTYTGEPTYAADFKRRFTFSLDTSKSTAYLQMNSLRAEDTAVYYCAKYPHYYVNERKSHWYFDVWGQGTL
VL: DIQLTQSPSSLSASVGDRVTITCRANEQLSNYLNWYQQKPGKAPKVLIYFTSSLHSGVPSRFSGSGSGTDFTLTISSLQPEDFATYYCQQYSTVPWTFGQGTKVEIKR
- Kd: 0.3 nM

B3: Y0239-2 (antibody, V domains shown)
VH: B2 VH with V104K, E106D, R107K, K108S
VL: B2 VL
- Kd: 4.6 nM

B6: Y0240-1 (antibody, V domains shown)
VH: B2 VH with V104L, N105T, E106D, R107H
VL: B2 VL
- Kd: 0.5 nM

B9: Y0239-12 (antibody, V domains shown)
VH: B2 VH with V104A, N105H, R107K
VL: B2 VL
- Kd: 0.6 nM

Second part, the binder after the results:

- Kd: 0.36 nM
B1: Y0313-2 (antibody, V domains shown)
VH: B2 VH with T28D, N31H
VL: B2 VL

- Kd: 2.7 nM
B4: Y0241-6 (antibody, V domains shown)
VH: EVQLVESGGGLVQPGGSLRLSCAASGYDYTNYGINWVRQAPGKGLEWVGWINTYTGEPTYAADFKRRFTFSLDTSKSTAYLQMNSLRAEDTAVYYCAKYPHYYGSSHWYFDVWGQGTL
VL: B2 VL

- Kd: 1.8 nM
B5: Y0242-1 (antibody, V domains shown)
VH: B4 VH with D28T, Y29F, I34M, Y54W
VL: B2 VL

- Kd: 3 nM
B7: Y0241-7 (antibody, V domains shown)
VH: B4 VH with Y29W
VL: B2 VL

- Kd: 0.6 nM
B8: Y0261-6 (antibody, V domains shown)
VH: B2 VH with V104L, N105K, E106D, R107K
VL: B2 VL
